Experimental data taken from the supplement of paper PMC9170038.

Tested on: MS2 coat protein
Assay: apparent KD of MS2 coat protein; designed switch direction (-1 OFF switch, 1 ON switch): -1; higher = weaker reporter binding
Method in brief: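 Normalised cluster fluorescence was curve-fitted, and each design's median over clusters is its apparent KD. Before this, SNAP-549-labelled MS2 coat protein was titrated from 0.7 or 1.5 nM, doubling to 3 µM, over RNA switches transcribed on Illumina chips by stalled E. coli RNA polymerase. Titrations had no input, 200 uM small-molecule ligand, or an oligonucleotide input, and steps lasted 0.8–1.5 h (lowest) to 10–20 min (highest).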

[1] = input ligand: microRNA oligo, concentration not stated
[2] = Eterna round: R95, input ligand: FMN 200 uM
[3] = Eterna round: R95, input ligand: microRNA oligo, concentration not stated
[4] = Eterna round: R95, input ligand: none

Row | Sequence | apparent KD of MS2 coat protein (input ligand: FMN 200 uM) [µM] | apparent KD of MS2 coat protein [1] [µM] | apparent KD of MS2 coat protein (input ligand: none) [µM] | apparent KD of MS2 coat protein [2] [µM] | apparent KD of MS2 coat protein [3] [µM] | apparent KD of MS2 coat protein [4] [µM]
1 | CUGAAAGACGAAGGAUAUCCAGGCGCCGGCGUAGGAGAAGGUCGUCCGGGUGUCCUAGAACUUGAGGAUCACCCAAGUAGAAGA [Mutated MS2 EX1.14] (Eterna round: R96, puzzle: Exclusion NG 1) | 0.0368 | 0.0249 | 0.0531 | – | – | –
2 | UAUUAGCAAGUAAGAUCCCACAUGAGGAUCACCCAUGUGCUCGUCUUAUAAGGUACUGUGACGAUAGUCACGGUACC [Mat - Sensor, turn-off var - Eli Mod - D44] (Eterna round: R97, puzzle: Sensor, turn-off variant 1) | 0.0183 | – | 0.0178 | – | – | –
3 | UAAUAAAAGGAGGAUAUCGUAUCGGAAACGAUACGAGAAGGCUUAACAUGAGGAUCACCCAUGUUCCUCAAUAA [Mat - Exclusion 6 - Eli Mod - D90] (puzzle: Exclusion 6) | – | – | – | 0.0593 | 0.0286 | 0.0326
4 | GCCUCGUCAGGAUAUUGGGAAGGCUGUUUUAUGAUUGCCCACAAGAAGGGACAUGAGGAUCACCCAUGUACAUU [Eternabot (L1) Solution 51] (Eterna round: R97, puzzle: Exclusion 4) | 0.0633 | – | 0.0325 | – | – | –
5 | AGAGUACUGCGAGGAUAUACAUGAGGAUCACCCAUGUGGUGGUGUGAGGCAAAGCCUCACACCAUGUAGAAGGCGCAGUACUCA [Mat - Exclusion NG 2 - Mod of JL - D20] (Eterna round: R96, puzzle: Exclusion NG 2) | 0.159 | 0.0266 | 0.0423 | – | – | –
6 | UUGUUAUAUGUAGGAUAUGCAUGUUAUUAUUAUGCAGAAGGACAUGAGGAUCACCCAUGUGUAUUAUUAUUAUAUAUUAUAUAU [Title] (Eterna round: R96, puzzle: Exclusion NG 1) | 0.0212 | 0.0141 | 0.0201 | – | – | –
7 | GCAAAGGUAGGAUAUCCACUGUGCAACAUGAGGAUCACCCAUGUGGUUCUUACCAUAAUUGGAGAAGGGCCGUGCA [Inrariri] (puzzle: Exclusion 5) | – | – | – | 0.0197 | 0.0193 | 0.0242
8 | AGUACUAACACGAAAGUGUUAGUACAAUAAGCUUGUGAAACAUGAGGAUCACCCAUGUCCUCCUAAGCUCGUCUUAU [salish99_TOv2_r3_049] (puzzle: Sensor v3, turn-off variant 2) | – | – | – | 0.0454 | 0.14 | 0.0432
9 | AUUUUAAUAUAGGAUAUCGAAUUUAUUAUUUAACGAGAAGGAUAAACAUGAGGAUCACCCAUGUGGUAUCAUGG [JMFs Solution 2] (puzzle: Exclusion 6) | – | – | – | – | 0.113 | –
10 | GUUUGACAUGAGGAUCACCCAUGUAAGGAUAUACGAGUAGAUACUAGAUAGUUAGUAUGUAGAAGGUACGUGUU [EX1 #64] (Eterna round: R97, puzzle: Exclusion 1) | 0.0346 | – | 0.0435 | – | – | –
11 | GACCCUAGGGUCAGACCCACAAGCUUUUUGCUCGUUUUAACAUGAGGAUCACCCAUGUCUAGUGGAUCUGAUCGGGC [Geores] (puzzle: Sensor v3, turn-off variant 2) | – | – | – | 0.0184 | 0.0764 | 0.0172
12 | AGUAUGCGGCAGGAUAUCCAUCCGCGAAAAGGUGGAGAAGGGCUGACAUGAGGAUCACCCAUGUGCGUCCUGUA [salish99_ex6_r4_030] (Eterna round: R97, puzzle: Exclusion 6) | 0.0253 | – | 0.0177 | – | – | –
13 | CGGGCCGGCCUUCCGGCCGGCCCGACAUGAGGAUCACCCAUGUAGGAUAUCCCGGCUGCCGGCCGGGAGAAGGGCGUGCGUCCU [-50.4, -49.5 kcal, 14% A] (Eterna round: R96, puzzle: Exclusion NG 3) | 0.101 | 0.0536 | 0.0916 | – | – | –
14 | GAGCUAUGAGGAUAUGCAUAUAUACGGUUUCGUGUGGUACUACAUGAGGAUCACCCAUGUAGAAGGCGUGGCUG [JL-ex2-2.05 mat747 mod] (puzzle: Exclusion 2) | – | – | – | – | 0.0142 | –
15 | ACAUGAGGAUCACCCAUGUCCGGCUGGUCUGUUCCGGCUGUCGAGGAUAUAGUCCGGUGUUCGCGCUAGAAGGCGAGGGCUGGA [Aenatbe mod 48] (Eterna round: R96, puzzle: Exclusion NG 3) | 0.088 | 0.0299 | 0.0436 | – | – | –
16 | CAUUACUGCAAGCUAUGGGACAUGAGGAUCACCCAUGUUCGUCUUAUUGAUCUAGGUACGCUGACGUACCUAGAUCU [JL-sv1-2.21 Brourd mod] (puzzle: Sensor v3, turn-off variant 1) | – | – | – | 0.0163 | 0.0214 | 0.015
17 | CGAGCUGGAGUGAGGAUAUCGUGUUCGAAAGAACGUGAGAAGGCACAUGAGGAUCACCCAUGUGAUUCAGCUCG [Omei Ex4B A4] (Eterna round: R97, puzzle: Brourd's mod of Exclusion 4) | 0.028 | – | 0.0201 | – | – | –

Row | Sequence | apparent KD of MS2 coat protein (input ligand: FMN 200 uM) [µM] | apparent KD of MS2 coat protein [1] [µM] | apparent KD of MS2 coat protein (input ligand: none) [µM] | apparent KD of MS2 coat protein [2] [µM] | apparent KD of MS2 coat protein [3] [µM] | apparent KD of MS2 coat protein [4] [µM]
18 | UUAGUAUUGCAAGGAUAUGUUUAUGAUAUUUUUCCUCUUACAUGAGGAUCACCCAUGUUUAACUUACAGAAGGUGCUAUGAUUU [JR_ExcNG2_Sub031] (Eterna round: R96, puzzle: Exclusion NG 2) | – | 0.342 | – | – | – | –
19 | GGAUUUUCUGAGGAUAUUGCAUCACCCGAUUUAUAAGAAGGCAGAACAUGAGGAUCACCCAUGUGGGUCUCUAG [Bingo-Bango-26] (Eterna round: R97, puzzle: Exclusion 6) | 0.0306 | – | 0.0245 | – | – | –
20 | GCCGAAAAUGAGAGGAUAUGCCUAUGGAUACGUAGGCAGAAGGCACAUGAGGAUCACCCAUGUUCCUCAACGGC [JL-BMX4-4.26 Eli mod] (Eterna round: R97, puzzle: Brourd's mod of Exclusion 4) | 0.0194 | – | 0.0146 | – | – | –
21 | AUUUGCACGCUGCGGUCCUACAUGAGGAUCACCCAUGUGGUCUGGUGGCGUGGGUCGCCGGACUUGGCUCGUCUUGG [salish99_S_TOV1_R5_034] (Eterna round: R97, puzzle: Sensor, turn-off variant 1) | 0.0149 | – | 0.0147 | – | – | –
22 | UUGUAGUUUGUAGGAUAUGGUUAUGUAUGUAAUCUAGAAGGACAUGAGGAUCACCCAUGUGGAGGUAAGUUGGGAAGAAGUAAU [random1] (Eterna round: R96, puzzle: Exclusion NG 1) | 0.0556 | 0.0308 | 0.0564 | – | – | –
23 | UAUAUAUAGUAAGGAUAUGUAUUAAUUUGAUAAACAGAAGGUACUGACAUGAGGAUCACCCAUGUUUUAGUGUGGGCAUGUAGA [JMF's solution 84] (Eterna round: R96, puzzle: Exclusion NG 1) | – | 0.0756 | – | – | – | –
24 | GUGAUCUAUCAUGGGAUAAACAUGAGGAUCACCCAUGUAAACAAGUUUUUUGCUCGUCUUAUAAUAAGAUAGAUCAC [Antenna 2 - Jieux - Sensor, turn-off variant 1] (Eterna round: R97, puzzle: Sensor, turn-off variant 1) | 0.0211 | – | 0.0209 | – | – | –
25 | GAUCAACAUGAGGAUCACCCAUGUGAGGAUAUGAUACUAUGUACUUCGGUACAUAGUAUCAGAAGGCAUGUGGA [Ex1-3: 76] (puzzle: Exclusion 1) | – | – | – | – | 0.162 | –
26 | CUGAUGUGAGGAUAUGUGAUCUGCCUUCUAUGUAGAUGAUCACAGAAGGCACAUGAGGAUCACCCAUGUAGAUC [Ex4 - 3 - 26] (Eterna round: R96, puzzle: Exclusion 4) | 0.129 | 0.0573 | 0.0994 | – | – | –
27 | CAGUACUGAGGAUAUACAUGAGGAUCACCCAUGUGUUCCAGCUAGGAUACUAGCAAAUGUAGAAGGCAGUACUG [Mat - Exclusion 3 - Eli Mod - D8] (Eterna round: R97, puzzle: Exclusion 3) | 0.0629 | – | 0.227 | – | – | –
28 | UACUUAUGAGUCAGGAUAUGUGAGGCGGAAGCGAUACAGAAGGGACAUGAGGAUCACCCAUGUUGGGUUCCUGU [Eternabot (Original) Solution 32] (Eterna round: R97, puzzle: Brourd's mod of Exclusion 4) | 0.526 | – | 0.0835 | – | – | –
29 | AUUCUUCAUAUCACAUGAGGAUCACCCAUGUUAUUCAUCGCGUAGGAUAUCGAGAAUUUUAAAUACGAGAAGGACGAAUUGAUA [JR_ExcNG3_Sub071] (Eterna round: R96, puzzle: Exclusion NG 3) | 0.0351 | 0.0318 | 0.0353 | – | – | –
30 | UUACAAUGUCGCUUAAUAGCUUUUUGCUCGUCUUAUAUUACAUGAGGAUCACCCAUGUAGAUCAUGUGGCGUGACCU [JL ViennaUCT Maridi mod 7] (puzzle: Sensor v3, turn-off variant 2) | – | – | – | 0.206 | 0.0407 | 0.21
31 | UGUUGUCGCGCAGGAUAUGAGGAUCACCCAUAUAAGGAUAUCGAAAGAGAAGGUCUGAGGAUUACCCAGAAGGGCGGGACAACU [pwkr exNG2 2xF5 2xFMN.30] (Eterna round: R96, puzzle: Exclusion NG 2) | 0.309 | 0.0438 | 0.0701 | – | – | –
32 | GCAGCAUAGAUUACUAGCUGUUACAUGAGGAUCACCCAUGUUCAGGAUAUGGUCUGGAUUACAGGCCAGAAGGGAACAAGCUGC [finally!] (Eterna round: R96, puzzle: Exclusion NG 3) | 0.0142 | 0.0129 | 0.0166 | – | – | –
33 | UGAUUGAUUAACAGAUUAUACAUGAGGAUCACCCAUGUAGGUCCUACGUGCCCUUUAUGCAGCUCGUCUUAUUCCCA [Sensor-V1 #70] (Eterna round: R97, puzzle: Sensor, turn-off variant 1) | 0.0536 | – | 0.05 | – | – | –
